Test results reported in patent US20180353525A1.

Biological target: receptor for activated C kinase (RACK1), endogenous, HT-1080 cells (human) (UniProt P63244)
Test: cell-based or functional assay

NHE6^527-588 peptide (pcDNA3-HA/NHE6^527-588), sequence (Q92581 559-620): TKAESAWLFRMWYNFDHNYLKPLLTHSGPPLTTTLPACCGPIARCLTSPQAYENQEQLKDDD

Fold (doxorubicin IC50 at 1% O2 against 21% O2): 1.6 fold | increase in drug sensitivity to Dox in cells exposed to hypoxia: 2.8 fold
Substance: NHE6^527-588 peptide (pcDNA3-HA/NHE6^527-588)
IC50 of doxorubicin, HT-1080 overexpressing the peptide, MTT viability, 1% O2: 224 nM | IC50 of doxorubicin, HT-1080 overexpressing the peptide, MTT viability, 21% O2: 137 nM
